Laboratory results reported in PMC11733250, “Interplay of p23 with FKBP51 and their chaperone complex in regulating tau aggregation” (Nature Communications, 2025).

B1: FKBP51 (natural protein, UniProt Q13451 1-457, looked up)
chain: MTTDEGAKNNEESPTATVAEQGEDITSKKDRGVLKIVKRVGNGEETPMIGDKVYVHYKGKLSNGKKFDSSHDRNEPFVFSLGKGQVIKAWDIGVATMKKGEICHLLCKPEYAYGSAGSLPKIPSNATLFFEIELLDFKGEDLFEDGGIIRRTKRKGEGYSNPNEGATVEIHLEGRCGGRMFDCRDVAFTVGEGEDHDIPIGIDKALEKMQREEQCILYLGPRYGFGEAGKPKFGIEPNAELIYEVTLKSFEKAKESWEMDTKEKLEQAAIVKEKGTVYFKGGKYMQAVIQYGKIVSWLEMEYGLSEKESKASESFLLAAFLNLAMCYLKLREYTKAVECCDKALGLDSANEKGLYRRGEAQLLMNEFESAKGDFEKVLEVNPQNKAARLQISMCQKKAKEHNERDRRIYANMFKKFAEQDAKEEANKAMGKKTSEGVTNEKGTDSQAMEEEKPEGHV
notes: FKBP51, 51 kDa, with the FK1, FK2 and TPR domains; all three domains and residues 426-457 are spoken of, which fits the whole 457-residue protein; Used unlabeled or with 13C-methyl (Leu, Val) labels; also called free FKBP51; LV-labeled FKBP51; source: grown in LB or M9 medium, IPTG-induced; purified (His-trap, HRV 3C cut of the His-tag, size exclusion chromatography)

Key:
Details in all cases: both partners purified
[1] = target: T1, 441-residue human 2N4R tau (human, UniProt P10636-8 1-441); experiment: cross-linking; p23:FKBP51:tau 1:1:1 (25 µM each), 1 mM DSS, 30 min at 25 °C; SDS-PAGE band above 220 kDa cut out, trypsin digest, mass spectrometry (pLink)
T1 construct: tau, human, 2N4R isoform, printed length 441 residues; Used unlabeled or 15N-labeled; source: grown in LB or M9 medium, IPTG-induced; purified (boiling, ammonium sulfate, Mono S ion exchange, reverse phase HPLC), lyophilized
T1 sequence (P10636 other isoform, or with tags, fused parts or gaps): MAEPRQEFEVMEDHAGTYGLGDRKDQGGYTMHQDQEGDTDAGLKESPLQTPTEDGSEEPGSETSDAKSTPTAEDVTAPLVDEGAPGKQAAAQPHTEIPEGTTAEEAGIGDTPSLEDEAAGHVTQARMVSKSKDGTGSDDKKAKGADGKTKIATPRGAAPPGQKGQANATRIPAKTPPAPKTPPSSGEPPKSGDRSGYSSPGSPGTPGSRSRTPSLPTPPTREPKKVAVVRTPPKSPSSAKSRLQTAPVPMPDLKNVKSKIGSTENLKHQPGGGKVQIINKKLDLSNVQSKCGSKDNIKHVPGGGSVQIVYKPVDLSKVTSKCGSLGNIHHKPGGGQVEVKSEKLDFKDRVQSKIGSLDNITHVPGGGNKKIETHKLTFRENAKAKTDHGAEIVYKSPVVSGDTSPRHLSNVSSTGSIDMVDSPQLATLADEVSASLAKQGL

[2] = target: T1, 441-residue human 2N4R tau; experiment: NMR titration; 1H-15N HSQC of 15N-labeled tau (20 or 30 µM); unlabeled p23 or p23 (1-119) added up to ten-fold molar excess; 50 mM NaP, 10 mM NaCl, 1 mM DTT, pH 6.8, 278 K
FKBP51 = target: B1; experiment: NMR titration; 1H-15N TROSY HSQC of deuterated 15N-labeled p23 (WT 40 µM, 1-119 25 µM, R88A R93A 40 µM); unlabeled FKBP51 added at equimolar to three-fold or five-fold molar excess; 25 mM HEPES, 10 mM KCl, 5 mM MgCl2, 1 mM DTT, pH 7.2, 303 K

## B1
[1]
  binding result: binds

B2: p23 wild-type (human co-chaperone p23, 160 amino acids) (natural protein, UniProt Q15185 1-160, looked up)
chain: MQPASAKWYDRRDYVFIEFCVEDSKDVNVNFEKSKLTFSCLGGSDNFKHLNEIDLFHCIDPNDSKHKRTDRSILCCLRKGESGQSWPRLTKERAKLNWLSVDFNNWKDWEDDSDEDMSNFDRFSEMMNNMGGDEDVDLPEVDGADDDSQDSDDEKMPDLE
notes: p23, human, 160 amino acids: folded domain (residues 1-110) and disordered C-terminal tail (residues 111-160); Used unlabeled, 15N-labeled or deuterated/15N-labeled; also called p23 WT; full-length p23; source: grown in LB or M9 medium, IPTG-induced; purified (His-trap, thrombin cut of the His-tag, size exclusion chromatography)
[2]
  binding result: binds

B3: truncated p23 (1-119) (domain or fragment, human, UniProt Q15185 1-119, looked up)
chain: MQPASAKWYDRRDYVFIEFCVEDSKDVNVNFEKSKLTFSCLGGSDNFKHLNEIDLFHCIDPNDSKHKRTDRSILCCLRKGESGQSWPRLTKERAKLNWLSVDFNNWKDWEDDSDEDMSN
notes: p23, human, residues 1-119; the terminal 41 residues are deleted; Made by site-directed mutagenesis; also called truncated (1–119) mutant p23; C-terminal deletion mutant of p23; source: grown in LB or M9 medium, IPTG-induced; purified (His-trap, thrombin cut of the His-tag, size exclusion chromatography)
FKBP51
  binding result: binds
